Source: patent US20260007703A1

Molecular target: CD47 on A20 murine lymphoma cells (mouse) (UniProt Q61735)
Test: cell-based or functional assay

Sequence of UniProt Q61735 (Q61735 19-303): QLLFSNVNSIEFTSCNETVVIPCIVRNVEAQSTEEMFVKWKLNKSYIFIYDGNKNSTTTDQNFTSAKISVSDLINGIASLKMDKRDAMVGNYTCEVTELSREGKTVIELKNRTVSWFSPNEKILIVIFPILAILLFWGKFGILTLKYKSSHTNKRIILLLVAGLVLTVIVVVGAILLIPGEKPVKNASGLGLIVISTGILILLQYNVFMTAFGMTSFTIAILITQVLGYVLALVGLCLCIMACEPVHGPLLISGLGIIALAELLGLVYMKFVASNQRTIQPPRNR

FITC-labeled anti-mouse CD47 monoclonal antibody, clone miap301
phagocytosis of DiI-labelled A20 tumor cells by bone marrow-derived macrophages: 60 % increase
